Assay results: patent publication US20080124811A1 (AbbVie / Abbott, published 2008)
Blank lines part the entries; values can stand above or below the binder they belong to.

Legend:
[1] = biological target: T1, human brain natriuretic peptide, cyclic BNP (1-32c) (human, cyclic: ring closed by a disulfide bond between the two cysteine residues; biotinylated or acridinium-labelled in some assays); assay: yeast display off-rate assay, flow cytometry; t1/2 = ln 2/koff
T1 construct: also called hBNP; hBNP 1-32

[2] = biological target: T1, human brain natriuretic peptide, cyclic …; assay: yeast display off-rate assay, flow cytometry, biotinylated cyclic BNP chased with unlabelled BNP, first order decay fit
[3] = biological target: T1, human brain natriuretic peptide, cyclic …; assay: off-rate assay on yeast-displayed scFv by flow cytometry: biotinylated cyclic BNP (1-32c), chase with unlabelled BNP 1-32c, SA:PE; m2 of the first order decay fit (error 0.00087362, R 0.98912), time axis in sec
[4] = biological target: T1, human brain natriuretic peptide, cyclic …; assay: scFv on yeast; method not described; printed unit µM read as pM (26 pM is said to be 10-fold lower)
[5] = biological target: T1, human brain natriuretic peptide, cyclic …; assay: off-rate assay on yeast-displayed scFv by flow cytometry: biotinylated cyclic BNP (1-32c), chase with unlabelled BNP 1-32c, SA:PE, first order decay fit
[6] = biological target: T1, human brain natriuretic peptide, cyclic …; assay: as above; remark: listed apart in the source
[7] = biological target: T1, human brain natriuretic peptide, cyclic …; assay: off-rate assay on yeast-displayed scFv; improvement of koff over 106.3 wt
[8] = biological target: T1, human brain natriuretic peptide, cyclic …; assay: … sandwich CMIA; capture 3631436 ms on microparticles, detection 106.3AM2-acridinium
[9] = biological target: T1, human brain natriuretic peptide, cyclic …; assay: Biacore SPR, antibody captured on goat anti-mouse Fc, BNP injected, 1:1 Langmuir fit
[10] = biological target: T1, human brain natriuretic peptide, cyclic …; assay: KinExA, solution phase
[11] = biological target: T1, human brain natriuretic peptide, cyclic …; assay: BIAcore SPR, antibody captured on goat anti-mouse Fc, BNP in solution, 25 C
[12] = biological target: T1, human brain natriuretic peptide, cyclic …; assay: … sandwich CMIA; capture 3-631-436 on microparticles, detection 106.3AM1-acridinium; second particle type
[13] = biological target: T1, human brain natriuretic peptide, cyclic …; assay: … sandwich CMIA; capture 3-631-436 on microparticles, detection 106.3AM1-acridinium

- half-life (t1/2) [1]: 2.4 min
- koff [2]: 0.0047 s⁻¹
- koff [3]: 0.00474 s⁻¹
- Kd [4]: ~0.26 nM
- koff [5]: 0.0048 s⁻¹
B1: 3-631-436 scFv, unmutated, on yeast (scFv)
scFv: QVQLQQPGAELVRPGASVKLSCKASGYTFTSYWMNWVKQRPEQGLEWIGRIDPYDSETHYNQKFKDKAILTVDKSSSTAFVQLTSLTSEDSAVYYCVSDGYWGAGTTVTVSSGPAKELTPLKEAKVSDVVMTQTPLTLSVTTGQPASISCKSSQSLLDSDGKTYLNWLFQRPGESPKLLIYVVSKLESGVPDRFTGSGSGTDFTLKISRVEAEDLGVYYCLQATHFPWTFGGGTKLEIKRAAALESRGPFEGKPIPNPLLGLDSTRTGHHHHHH

- koff [6]: 3.7e-05 s⁻¹
- Fold Improvement [7]: 2.3 fold
B2: H2 288 (scFv)
scFv (VH-linker-VL with V5 and 6His tags), displayed on yeast: QLVQSGPELRKPGETVKISCKGSGYTFTHYGINWVKQTPRKDLKWMGWINTHTGEAYYADDFKGRFAFSLETSANTAYLQINNLNNGDMGTYFCTRSHRFGLDYWGQGTSVTVSSGPAKELTPLKEAKVSDNVLTQSPPSLAVSLGQRATISCKASQSVDYNGDSYLNWYQQKPGQPPKFLIYAASNLESGIPARFSGSGSGTDFNLNIHPVEEEDAATYYCQQSNEDPFTFGSGTKLEIKRAAALESRGPFEGKPIPNPLLGLDSTRTGHHHHHH
notes: member of group m4

- Ratio B/A (RLU at 30 pg/mL over 0 pg/mL) [8]: 2.7
- Ratio C/A (RLU at 300 pg/mL over 0 pg/mL) [8]: 14.3
- Ratio D/A (RLU at 1000 pg/mL over 0 pg/mL) [8]: 32.4
- Ratio E/A (RLU at 2000 pg/mL over 0 pg/mL) [8]: 198
- Ratio F/A (RLU at 5000 pg/mL over 0 pg/mL) [8]: 595
- Kd [9]: 0.375 nM
- Kd [10]: 0.286 nM
- Kd [11]: 0.38 nM
- koff [11]: 0.0025 s⁻¹
- kon [11]: 6.7e+06 M⁻¹ s⁻¹
- Ratio B/A (RLU at 30 pg/mL over 0 pg/mL) [12]: 2.4
- Ratio C/A (RLU at 300 pg/mL over 0 pg/mL) [12]: 23.9
- Ratio D/A (RLU at 1000 pg/mL over 0 pg/mL) [12]: 145
- Ratio E/A (RLU at 2000 pg/mL over 0 pg/mL) [12]: 409
- Ratio B/A (RLU at 30 pg/mL over 0 pg/mL) [13]: 1.9
- Ratio C/A (RLU at 300 pg/mL over 0 pg/mL) [13]: 27.8
- Ratio D/A (RLU at 1000 pg/mL over 0 pg/mL) [13]: 196
- Ratio E/A (RLU at 2000 pg/mL over 0 pg/mL) [13]: 471
B3: monoclonal antibody 3-631-436 (wild-type mouse mAb from hybridoma cell line 3-631-436, A.T.C.C. PTA-6476) (antibody, V domains shown)
VH: QVQLQQPGAELVRPGASVKLSCKASGYTFTSYWMNWVKQRPEQGLEWIGRIDPYDSETHYNQKFKDKAILTVDKSSSTAFVQLTSLTSEDSAVYYCVSDGYWGAGTTVTVSS
VL: DVVMTQTPLTLSVTTGQPASISCKSSQSLLDSDGKTYLNWLFQRPGESPKLLIYVVSKLESGVPDRFTGSGSGTDFTLKISRVEAEDLGVYYCLQATHFPWTFGGGTKLEIK
modifications: In the sandwich assays the antibody was coupled to particles, biotinylated or acridinium-labelled; the letters do not carry this.
notes: the whole entry is named for each chain and must be cut at the linker; Coated on particles, biotinylated or acridinium-conjugated in the sandwich assays
